This is an account of results in article PMC10881500.

Assay [1] addresses KFN (Mut3; HuJovi-1 VH T28K, Y32F, A96N), human IgG1 (human). Nature of the assay: SPR; Biacore T200; antibody as human IgG1 captured with an anti-human capture kit on CM5 to 200 RU; TRBC1 or TRBC2 as analyte, 150 s contact, 300 s dissociation, 30 μl/min, 25 °C, HBS-P+ pH 7.4; 1:1 Langmuir model. On the technique in general: Surface plasmon resonance follows binding to a sensor surface in real time, without labels.

Assay [2] has as its target HuJovi-1 (humanized Jovi-1), human IgG1 (human). The assay is described as above.

KFN (Mut3; HuJovi-1 VH T28K, Y32F, A96N), human IgG1 (human), sequence (heavy, as listed by the source, chain 1 of 2): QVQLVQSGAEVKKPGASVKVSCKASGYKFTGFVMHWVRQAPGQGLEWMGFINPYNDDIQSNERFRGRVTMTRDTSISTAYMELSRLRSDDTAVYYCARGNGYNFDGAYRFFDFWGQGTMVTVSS
KFN (Mut3; HuJovi-1 VH T28K, Y32F, A96N), human IgG1 (human), sequence (light, as listed by the source, chain 2 of 2): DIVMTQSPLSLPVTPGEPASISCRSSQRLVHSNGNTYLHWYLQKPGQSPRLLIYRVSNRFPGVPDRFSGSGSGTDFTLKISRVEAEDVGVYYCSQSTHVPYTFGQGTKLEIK
HuJovi-1 (humanized Jovi-1), human IgG1 (human), sequence (heavy, as listed by the source, chain 1 of 2): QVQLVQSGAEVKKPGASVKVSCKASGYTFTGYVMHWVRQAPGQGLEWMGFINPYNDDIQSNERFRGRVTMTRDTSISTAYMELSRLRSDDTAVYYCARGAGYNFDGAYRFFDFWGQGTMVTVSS
HuJovi-1 (humanized Jovi-1), human IgG1 (human), sequence (light, as listed by the source, chain 2 of 2): as the sequence (light, as listed by the source, chain 2 of 2) above

The Kd is the equilibrium constant for the complex coming apart. A high value points to weaker binding. The koff is a measure of how fast the partners let go of each other. Read a high koff as fast dissociation. In assay [1], “Recombinant, purified TRBC1 (soluble αβ TCR with the β-chain constant domain TRBC1), SPR analyte” yielded a Kd of 1960 nM and a koff of 0.155 s⁻¹.

In assay [2], “Recombinant, purified TRBC2 (soluble αβ TCR with the β-chain constant domain TRBC2), SPR analyte” had a Kd of 12.9 µM and a koff of 1.29 s⁻¹.
